In patent US20240270821A1, “GIP/GLP1/GCG TRI-RECEPTOR AGONISTS AND USES THEREOF” (priority 2023, published 2024):
Positions count from the first letter of the chain named.

T1: human GIP receptor (human) (UniProt P48546)
T1 sequence (looked up): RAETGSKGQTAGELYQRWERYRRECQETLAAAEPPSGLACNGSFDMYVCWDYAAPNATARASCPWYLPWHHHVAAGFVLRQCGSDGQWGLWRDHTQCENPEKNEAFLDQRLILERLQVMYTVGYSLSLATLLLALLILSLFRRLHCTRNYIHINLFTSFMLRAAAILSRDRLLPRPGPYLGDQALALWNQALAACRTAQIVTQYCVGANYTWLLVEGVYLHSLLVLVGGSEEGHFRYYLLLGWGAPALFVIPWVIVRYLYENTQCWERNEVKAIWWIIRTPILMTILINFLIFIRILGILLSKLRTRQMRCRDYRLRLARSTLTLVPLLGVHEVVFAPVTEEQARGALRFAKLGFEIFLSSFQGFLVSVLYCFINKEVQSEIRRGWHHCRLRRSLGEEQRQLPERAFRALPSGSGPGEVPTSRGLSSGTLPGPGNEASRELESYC

B1: Example 170 (peptide)
chain: YXQGTFTSDFSXXLDKKAQXAFIEWLLEGGHSSGAPPPSGS
modifications: Lys acylated with AEEA-γGlu-C18 diacid; non-natural residues; C-amide; synthetic construct; SITE 2: note = 2-Aminoisobutyric Acid; SITE 12: note = L-ornithine; SITE 13: note = alpha-methyl-leucine; SITE 17: note = Lysine is chemically modified through conjugation of the epsilon-amino group of the Lysine side chain with (2-[2-(2-Amino-ethoxy)-ethoxy]-acetyl)-(gamma-Glu)
B2: Example 221 (peptide)
chain: B1 chain with X12R, W25Y, L27I, G29X, H31E
modifications: C-terminal amide; lysine acylated with AEEA-γ-Glu-C18 diacid; synthetic construct; SITE 2: note = 2-Aminoisobutyric Acid; SITE 13: note = alpha-methyl-leucine; SITE 17: note = Lysine is chemically modified through conjugation of the epsilon-amino group of the Lysine side chain with (2-[2-(2-Amino-ethoxy)-ethoxy]-acetyl)-(gamma-Glu)-CO-(CH2) 16-CO2H; SITE 20: n
B3: Example 184 (peptide)
chain: B1 chain with W25Y, G29X, H31X, S41T
modifications: non-natural residues, acylated Lys, C-terminal amide; synthetic construct; SITE 2: note = 2-Aminoisobutyric Acid; SITE 12: note = L-ornithine; SITE 13: note = alpha-methyl-leucine; SITE 17: note = Lysine is chemically modified through conjugation of the epsilon-amino group of the Lysine side chain with (2-[2-(2-Amino-ethoxy)-ethoxy]-acetyl)2-(gamma-Glu)
B4: Example 229 (peptide)
chain: B1 chain with W25Y, L27I, G29X, H31E
modifications: non-natural residues; lipidated Lys AEEA-γGlu-C18 diacid; C-term amide; synthetic construct; SITE 2: note = 2-Aminoisobutyric Acid; SITE 12: note = L-ornithine; SITE 13: note = alpha-methyl-leucine; SITE 17: note = Lysine is chemically modified through conjugation of the epsilon-amino group of the Lysine side chain with (2-[2-(2-Amino-ethoxy)-ethoxy]-acetyl)-(gamma-Glu)
B5: Example 235 (peptide)
chain: B1 chain with W25Y, H31P, P36X, S39G
modifications: Aib, Orn, αMeL, Hyp; AEEA-γGlu-C18 diacid on Lys; C-terminal amide; synthetic construct; SITE 2: note = 2-Aminoisobutyric Acid; SITE 12: note = L-ornithine; SITE 13: note = alpha-methyl-leucine; SITE 17: note = Lysine is chemically modified through conjugation of the epsilon-amino group of the Lysine side chain with (2-[2-(2-Amino-ethoxy)-ethoxy]-acetyl)-(gamma-Glu)
B6: Example 257 (peptide)
chain: B1 chain with W25Y, G29A, H31P, A35X, S41H
modifications: synthetic construct; SITE 2: note = 2-Aminoisobutyric Acid; SITE 12: note = L-ornithine; SITE 13: note = alpha-methyl-leucine; SITE 17: note = Lysine is chemically modified through conjugation of the epsilon-amino group of the Lysine side chain with (2-[2-(2-Amino-ethoxy)-ethoxy]-acetyl)2-(gamma-Glu)
B7: Example 215 (peptide)
chain: B1 chain with X12K, W25Y, L27I, H31E
modifications: Lys acylated with AEEA-γGlu-C18 diacid; non-natural residues; C-amide; synthetic construct; SITE 2: note = 2-Aminoisobutyric Acid; SITE 13: note = alpha-methyl-leucine; SITE 17: note = Lysine is chemically modified through conjugation of the epsilon-amino group of the Lysine side chain with (2-[2-(2-Amino-ethoxy)-ethoxy]-acetyl)-(gamma-Glu)-CO-(CH2) 16-CO2H; SITE 20: n
B8: Example 191 (peptide)
chain: B1 chain with F10X, W25Y, G29X, H31P
modifications: non-natural residues; lysine acylated AEEA-γGlu-C18 diacid; C-terminal amide; synthetic construct; SITE 2: note = 2-Aminoisobutyric Acid; SITE 10: note = 4-cyano-L-phenylalanine; SITE 12: note = L-ornithine; SITE 13: note = alpha-methyl-leucine; SITE 17: note = Lysine is chemically modified through conjugation of the epsilon-amino group of the Lysine side chain with (2-[2-(2-
B9: Example 195 (peptide)
chain: B1 chain with W25Y, G29X, H31P, A35E, S39E
modifications: Lys acylated (AEEA)2-γGlu-C18 diacid; non-natural residues; C-terminal amide; synthetic construct; SITE 2: note = 2-Aminoisobutyric Acid; SITE 12: note = L-ornithine; SITE 13: note = alpha-methyl-leucine; SITE 17: note = Lysine is chemically modified through conjugation of the epsilon-amino group of the Lysine side chain with (2-[2-(2-Amino-ethoxy)-ethoxy]-acetyl)2-(gamma-Glu)
B10: Example 234 (peptide)
chain: B1 chain with W25Y, H31X, S39G
modifications: Aib, Orn, αMeL, Hyp; lipidated Lys; C-terminal amide; synthetic construct; SITE 2: note = 2-Aminoisobutyric Acid; SITE 12: note = L-ornithine; SITE 13: note = alpha-methyl-leucine; SITE 17: note = Lysine is chemically modified through conjugation of the epsilon-amino group of the Lysine side chain with (2-[2-(2-Amino-ethoxy)-ethoxy]-acetyl)-(gamma-Glu)
B11: Example 243 (peptide)
chain: B1 chain with W25Y, G29X
modifications: Aib, Orn, αMeL; lipidated Lys; C-terminal amide; synthetic construct; SITE 2: note = 2-Aminoisobutyric Acid; SITE 12: note = L-ornithine; SITE 13: note = alpha-methyl-leucine; SITE 17: note = Lysine is chemically modified through conjugation of the epsilon-amino group of the Lysine side chain with (2-[2-(2-Amino-ethoxy)-ethoxy]-acetyl)-(gamma-Glu)
B12: Example 182 (peptide)
chain: B1 chain with W25Y, G29X, S41T
modifications: Aib, Orn, alpha-methyl-Leu, lipidated Lys, C-terminal amide; synthetic construct; SITE 2: note = 2-Aminoisobutyric Acid; SITE 12: note = L-ornithine; SITE 13: note = alpha-methyl-leucine; SITE 17: note = Lysine is chemically modified through conjugation of the epsilon-amino group of the Lysine side chain with (2-[2-(2-Amino-ethoxy)-ethoxy]-acetyl)2-(gamma-Glu)
B13: Example 240 (peptide)
chain: B1 chain with W25Y, G29X, H31E
modifications: non-natural residues; lipidated Lys; C-terminal amide; synthetic construct; SITE 2: note = 2-Aminoisobutyric Acid; SITE 12: note = L-ornithine; SITE 13: note = alpha-methyl-leucine; SITE 17: note = Lysine is chemically modified through conjugation of the epsilon-amino group of the Lysine side chain with (2-[2-(2-Amino-ethoxy)-ethoxy]-acetyl)-(gamma-Glu)
B14: Example 210 (peptide)
chain: B1 chain with W25Y, G29A, H31P, S41T
modifications: non-natural residues, lysine acylation, C-terminal amide; synthetic construct; SITE 2: note = 2-Aminoisobutyric Acid; SITE 12: note = L-ornithine; SITE 13: note = alpha-methyl-leucine; SITE 17: note = Lysine is chemically modified through conjugation of the epsilon-amino group of the Lysine side chain with (2-[2-(2-Amino-ethoxy)-ethoxy]-acetyl)-(gamma-Glu)
B15: Example 197 (peptide)
chain: B1 chain with W25Y, H31P, S39G, S41T
modifications: non-natural residues; lipidated Lys; synthetic construct; SITE 2: note = 2-Aminoisobutyric Acid; SITE 12: note = L-ornithine; SITE 13: note = alpha-methyl-leucine; SITE 17: note = Lysine is chemically modified through conjugation of the epsilon-amino group of the Lysine side chain with (2-[2-(2-Amino-ethoxy)-ethoxy]-acetyl)-(gamma-Glu)

Each binder was assayed against human glucagon receptor (human) (UniProt P47871) (assay: cell-based or functional assay).
human glucagon receptor (human), sequence (P47871 26-477): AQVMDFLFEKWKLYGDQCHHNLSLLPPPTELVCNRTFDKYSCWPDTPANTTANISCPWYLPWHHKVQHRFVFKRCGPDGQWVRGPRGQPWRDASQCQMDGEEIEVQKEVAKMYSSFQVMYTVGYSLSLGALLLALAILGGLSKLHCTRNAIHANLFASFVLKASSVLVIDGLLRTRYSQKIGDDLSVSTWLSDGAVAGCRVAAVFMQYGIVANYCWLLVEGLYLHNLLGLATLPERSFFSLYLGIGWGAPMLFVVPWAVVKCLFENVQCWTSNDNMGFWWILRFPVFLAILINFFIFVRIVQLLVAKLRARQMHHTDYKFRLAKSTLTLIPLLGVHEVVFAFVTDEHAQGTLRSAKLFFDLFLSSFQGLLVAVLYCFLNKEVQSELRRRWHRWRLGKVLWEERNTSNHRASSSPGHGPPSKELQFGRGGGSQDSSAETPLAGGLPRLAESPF

Binder	Relative cAMP EC50, nM (0.1% casein)	cAMP Rel EC50, nM (1% HSA)	Relative cAMP EC50	cAMP Rel EC50 (in the presence of 1% HSA)
B1	5.29 nM	1800 nM	–	–
B2	–	–	11.3 nM	–
B3	5.23 nM	1050 nM	–	–
B4	–	–	2.3 nM	–
B5	–	700 nM	4.35 nM	–
B6	–	–	7.36 nM	1210 nM
B7	–	1510 nM	9.77 nM	–
B8	2.11 nM	–	–	–
B9	3.1 nM	605 nM	–	–
B10	–	702 nM	7.87 nM	–
B11	–	–	6.86 nM	–
B12	5.33 nM	1480 nM	–	–
B13	–	521 nM	2.02 nM	–
B14	–	–	2.81 nM	–
B15	–	613 nM	3.23 nM	–

The binders below were run against hGLP-1R (Homo sapiens, UniProt P43220) (assay: cell-based or functional assay).
hGLP-1R, sequence (P43220 24-463): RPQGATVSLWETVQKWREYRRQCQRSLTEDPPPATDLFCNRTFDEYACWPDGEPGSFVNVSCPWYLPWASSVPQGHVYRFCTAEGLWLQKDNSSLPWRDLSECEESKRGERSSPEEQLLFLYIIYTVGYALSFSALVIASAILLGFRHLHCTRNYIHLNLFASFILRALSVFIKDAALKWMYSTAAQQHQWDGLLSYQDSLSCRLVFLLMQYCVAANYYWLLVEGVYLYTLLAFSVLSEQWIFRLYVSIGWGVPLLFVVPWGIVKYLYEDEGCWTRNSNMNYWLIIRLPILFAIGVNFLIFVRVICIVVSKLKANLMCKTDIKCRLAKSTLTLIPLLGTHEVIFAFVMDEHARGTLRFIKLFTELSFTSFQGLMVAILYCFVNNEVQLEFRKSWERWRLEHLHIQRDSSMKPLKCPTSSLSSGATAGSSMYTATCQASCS

Binder	Relative cAMP EC50, nM (0.1% casein)	cAMP Rel EC50, nM (1% HSA)	Relative cAMP EC50	cAMP Rel EC50 (in the presence of 1% HSA)
B1	4.11 nM	361 nM	–	–
B2	–	–	0.629 nM	–
B3	5.02 nM	465 nM	–	–
B4	–	–	1.58 nM	–
B5	–	457 nM	3.55 nM	–
B6	–	–	2.66 nM	388 nM
B7	–	162 nM	0.803 nM	–
B8	2.48 nM	–	–	–
B9	6.13 nM	829 nM	–	–
B10	–	604 nM	4.72 nM	–
B11	–	–	6.46 nM	–
B12	4.8 nM	398 nM	–	–
B13	–	396 nM	3.62 nM	–
B14	–	–	1.44 nM	–
B15	–	440 nM	4.81 nM	–

These binders were tested against T1, human GIP receptor (human) (assay: cell-based or functional assay).

Binder	Relative cAMP EC50, nM (0.1% casein)	cAMP Rel EC50, nM (1% HSA)	Relative cAMP EC50	cAMP Rel EC50 (in the presence of 1% HSA)
B1	0.401 nM	43.5 nM	–	–
B2	–	–	0.105 nM	–
B3	0.162 nM	16.2 nM	–	–
B4	–	–	0.179 nM	–
B5	–	40.8 nM	0.388 nM	–
B6	–	–	0.135 nM	21 nM
B7	–	87.3 nM	0.418 nM	–
B8	0.422 nM	–	–	–
B9	0.145 nM	28.8 nM	–	–
B10	–	31.1 nM	0.322 nM	–
B11	–	–	0.178 nM	–
B12	0.0781 nM	9.95 nM	–	–
B13	–	10.4 nM	0.214 nM	–
B14	–	–	0.153 nM	–
B15	–	44.1 nM	0.31 nM	–
